Substitutions are numbered along the chain they refer to.
Experiments:
[1] = target: T1, recombinant cynomolgus monkey TNFR2 (Cyno. TNFR2) (Sino Biological, 90102-C021) (cynomolgus monkey, UniProt A0A2K5VET2 132-366); test: ELISA, coated cynomolgus TNFR2
T1 sequence: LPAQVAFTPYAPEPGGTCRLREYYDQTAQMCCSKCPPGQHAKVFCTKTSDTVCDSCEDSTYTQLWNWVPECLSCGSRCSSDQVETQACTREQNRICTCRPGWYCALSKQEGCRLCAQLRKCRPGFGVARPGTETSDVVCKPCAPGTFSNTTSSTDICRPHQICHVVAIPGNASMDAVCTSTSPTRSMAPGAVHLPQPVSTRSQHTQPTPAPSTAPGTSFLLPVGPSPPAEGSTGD
Procedure: (§1) After TMB development, the detection was performed using microplate reader: dual wavelength 450 nm/655 nm detection, and results were calculated by OD₄₅₀-OD₆₅₅.
(§2) Using the same method as above, the TNFR2 antigens of cynomolgus monkey and mouse (Sino Biological, 90102-C021 and 50128-M08H) were coated separately. The anti-human TNFR2 mouse monoclonal antibodies to be tested were gradient diluted, then added with the anti-mouse Fab segment secondary antibody (Jackson Immuno Research, 515-035-072), and TMB development was performed. ELISA was used to detect the binding of 8 strains of mouse monoclonal antibodies to recombinant mouse TNFR2 (mTNFR2) and cynomolgus monkey TNFR2 (Cyno. TNFR2).

[2] = target: T2, human TNFR2 on the cell membrane (human, UniProt P20333 23-461); test: flow cytometry, TNFR2-CHO cells
T2 construct: whole, on cells; One molecule for all cell formats; also called TNFR2-CHO cells; CHO-TNFR2
T2 sequence (looked up): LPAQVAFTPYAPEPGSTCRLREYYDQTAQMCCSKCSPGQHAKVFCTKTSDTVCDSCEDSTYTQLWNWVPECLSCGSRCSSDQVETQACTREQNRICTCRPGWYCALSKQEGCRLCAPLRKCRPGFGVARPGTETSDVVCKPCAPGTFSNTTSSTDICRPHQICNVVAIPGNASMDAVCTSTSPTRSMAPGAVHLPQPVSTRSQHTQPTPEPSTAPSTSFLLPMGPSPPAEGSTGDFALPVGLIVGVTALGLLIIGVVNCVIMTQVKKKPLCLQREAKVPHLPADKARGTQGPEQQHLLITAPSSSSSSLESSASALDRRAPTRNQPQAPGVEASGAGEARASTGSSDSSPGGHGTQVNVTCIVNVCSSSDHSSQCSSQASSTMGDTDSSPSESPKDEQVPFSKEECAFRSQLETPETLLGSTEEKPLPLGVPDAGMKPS
Procedure: (§3) Purified anti-human TNFR2 mouse monoclonal antibodies were co-incubated with TNFR2 overexpressing CHO cell lines (obtained routinely as follows: PCDNA3.4-TNFR2 was transfected into CHO cells, and stable high expression TNFR2 cell lines were obtained through drug screening and monoclonal sorting), and then stained. The antibody binding intensity was analyzed by flow cytometry. The specific steps are as follows: TNFR2-CHO cells were counted, centrifuged, resuspended, then added to a 96-deep well plate, and the supernatant was discarded. The anti-TNFR2 antibodies to be tested were gradient diluted, added to the 96-deep well plate. […] The samples were detected using Beckman CytoFLEX.

[3] = target: T3, recombinant human TNFR2 antigen (Kangdai, batch number A100114U) (human, UniProt P20333 23-257); test: ELISA, coated recombinant human TNFR2
T3 construct: also called hTNFR2; TNFR2-FC (Shanghai Saijin Biopharmaceutical Co., Ltd., Qiangke, catalog number A100114U); not shown: Fc part of the bought TNFR2-FC
T3 sequence (looked up): T1 sequence with G16S, P36S, Q117P, H164N, A210E, G216S, V223M
Procedure: as §1

[4] = target: T2, human TNFR2 on the cell membrane; test: flow cytometry on TNFR2-CHO cells
Procedure: as §3

[5] = target: T4, recombinant mouse TNFR2 (mTNFR2) (Sino Biological, 50128-M08H) (mouse, UniProt P25119 23-258); test: ELISA, plate coated with recombinant mouse TNFR2
T4 sequence (looked up): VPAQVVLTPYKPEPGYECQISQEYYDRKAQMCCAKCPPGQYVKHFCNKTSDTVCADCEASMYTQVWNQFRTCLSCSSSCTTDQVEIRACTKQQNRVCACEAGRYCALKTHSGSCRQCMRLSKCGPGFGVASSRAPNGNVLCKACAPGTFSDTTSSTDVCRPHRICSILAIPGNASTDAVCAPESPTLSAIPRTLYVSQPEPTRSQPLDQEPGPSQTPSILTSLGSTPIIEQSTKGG
Procedure: as §1, §2

[6] = target: T3, recombinant human TNFR2 antigen …; test: ELISA, plate coated with recombinant human TNFR2 antigen
Procedure: as §1

[7] = target: T1, recombinant cynomolgus monkey TNFR2 …; test: ELISA, plate coated with recombinant cynomolgus monkey TNFR2
Procedure: as §1, §2

EC50 [1]: 0.0371 µg/mL | EC50 [2]: 5.71 µg/mL | EC50 [3]: 0.0218 µg/mL | EC50 [4]: 38.3 nM | binding result [5]: no binding | EC50 [6]: 0.146 nM | EC50 [7]: 0.248 nM
B1: anti-human TNFR2 mouse monoclonal antibody 16D2 (antibody, V domains shown)
VH: EVQLQQSEPELVKPGASVKIPCKASGYTFTDYNMDWVKQSHGKSLEWIGDINPNNGVTIYNQKFKGKATLTVDKSSSTAYMELRSLTSEDTAVYYCVILEYFDYWGQGTTLTVSS
VL: DIVMTQSTSSMSVSLGDTVSITCHASQGISSNIGWLQQKPGKSFKGLIYHGTKLEDGVPSRFSGSGSGADYSLTISSLESEDFADYYCVQYAQFPRTFGGGTKLEIK
